Residues, ends and D or L forms follow the SMILES beside them. No end group written: not given here. *: point of attachment. FITC = O=C1OC2(c3ccc(O)cc3Oc3cc(O)ccc32)c2ccc(NC(=S)*)cc21; fluorescein = fluorescein label on the N-terminus
Assays:
[1] = NMR 13C secondary chemical shifts (peptide conformation); assay type: physicochemical; settings: C-terminally extended version of the ALDP peptide with additional tryptophan (residue 68 to 82)
Text: Phe71 aromatic ring protons
Residue number Leucine residue
Supplementary Figure 8: Intermolecular NOEs between PEX19 CTD and the ALDP peptide, and secondary structure of the latter. (a) 1H,1H plane of a 3D ω1-filtered, ω2-edited 13C-NOESY-HSQC experiment of farnesylated PEX19 CTD free (black) and bound to the ALDP peptide (red). Methyl and methylene protons of the unlabeled farnesyl group of the PEX19 CTD show NOEs with protons of the isotope-labeled farnesylated PEX19 CTD (black circles). In the presence of also unlabeled ALDP peptide additional intermolecular methyl-methyl and aliphatic-aromatic NOEs are observed (red circles and below). (b) NMR 13C secondary chemical shifts of a C-terminally extended […]
tion. (c) Due to signal overlap, 5 out of 7 spin systems for leucine residues were assigned. Nevertheless, also the leucines residues adopt a helical conformation.
(also on this page, place not known: (Leu75)(Leu76) (Leu81)(Leu82) 5 LeuC Cα- Cβ [p.p.m.] Cα- Cβ [p.p.m.] c ω2 ω1 1H (p.p.m.) ω1 1H (p.p.m.) QDPro273/Pro274 { - - { 5)

PEX19 CTD M179R = assay: Fluorescence polarization, ALDP peptide binding to PEX19 CTD M179R; parameters: species or system human; settings: with or without farnesylation, FITC-labelled ALDP peptide 20 nM, triplicate (n = 3)
Protocol: (§1) ALDP peptide (62-AAKAGMNRVFLQRLL-76) fused N-terminally with fluorescein isothiocyanate (FITC), was purchased from Peptide Specialty Laboratories GmbH. The lyophilized powder was dissolved in 1 ml water resulting in a 5 mM stock solution. Overnight dialysis against buffer containing 50 mM Tris pH 8.0, 50 mM NaCl, removed trifluoroacetate counterions. For the determination of each binding curve a 12 point titration was performed with constant concentration of 20 nM labelled peptide with increasing concentrations of PEX19 CTD variants. Starting concentration of PEX19 CTD was 1 mM with 12 serial dilutions reaching 0.5 μM. Reaction mixtures were then transferred into 96-well Optiplate and measured as triplicates in PerkinElmer EnVision plate reader. […]
(§2) Supplementary Figure 6: ALDP af finity measurement for PEX19 CTD proteins using a fluorescence polarization assay . Polarization plots as a function of protein concentration for the direct titration of PEX19 non-farnesylated (black) and farnesylated (red) forms (wild type and residue spedific mutants) into fluorescein-labeled ALDP peptide. […]
(§3) (also on this page, place not known: assay. affinity Fluorescence polarization (mP) wt wtfarn Fluorescence polarization (mP) M179Rfarn 0.00 1.00 Fluorescence polarization (mP) M255Rfarn 0.00 1.00 Fluorescence polarization (mP) I195Kfarn Kd Kd /uni03BCM)

PEX19 CTD I195K = assay: Fluorescence polarization, ALDP peptide binding to PEX19 CTD I195K; parameters: species or system human; settings: with or without farnesylation, FITC-labelled ALDP peptide 20 nM, triplicate (n = 3)
Protocol: as §1, §2, §3

PEX19 CTD M255R = assay: Fluorescence polarization, ALDP peptide binding to PEX19 CTD M255R; parameters: species or system human; settings: with or without farnesylation, FITC-labelled ALDP peptide 20 nM, triplicate (n = 3)
Protocol: as §1, §2, §3

[2] = biological target: T1, farnesylated wild type PEX19 CTD (Homo sapiens, UniProt P40855); assay: Fluorescence polarization, ALDP peptide binding to farnesylated wild type PEX19 CTD; settings: ratio farnesylated vs non-farnesylated wild type PEX19 CTD
T1 construct: we studied the human PEX19 CTD (residues 161–299) that includes the native C-terminus; hexahistidine (TEV-cleavable) (cleaved yes); made in house; host or cells: Escherichia coli BL21 (DE3); farnesylated in vitro with recombinant S. cerevisiae farnesyl transferase
T1 sequence (P40855 161-299): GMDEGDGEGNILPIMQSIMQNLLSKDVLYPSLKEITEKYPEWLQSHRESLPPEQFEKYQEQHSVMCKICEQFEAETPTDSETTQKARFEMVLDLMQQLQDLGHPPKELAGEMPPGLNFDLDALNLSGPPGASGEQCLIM
Protocol: as §1, §2
standard deviations for triplicate measurements (n = 3).
as §3

[3] = biological target: FITC-labelled ALDP peptide (62-…-76) (human); assay: fluorescence polarisation; 20 nM FITC-ALDP peptide constant, 12-point titration of PEX19 CTD variants from 1 mM to 0.5 uM; 50 mM Tris pH 8.0, 50 mM NaCl; triplicates
[4] = biological target: T2, farnesylated human PEX19 C-terminal domain (residues 161-299) (human, UniProt P40855 161-299, farnesyl group on Cys296 (CaaX box)); assay: FP; farnesylated PEX19
T2 chain: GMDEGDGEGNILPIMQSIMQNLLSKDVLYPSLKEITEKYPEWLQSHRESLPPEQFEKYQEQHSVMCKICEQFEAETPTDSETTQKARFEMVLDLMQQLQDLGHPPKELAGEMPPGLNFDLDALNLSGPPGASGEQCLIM

[5] = biological target: T3, non-farnesylated human PEX19 C-terminal domain (residues 161-299) (human, UniProt P40855 161-299); assay: FP
T3 chain: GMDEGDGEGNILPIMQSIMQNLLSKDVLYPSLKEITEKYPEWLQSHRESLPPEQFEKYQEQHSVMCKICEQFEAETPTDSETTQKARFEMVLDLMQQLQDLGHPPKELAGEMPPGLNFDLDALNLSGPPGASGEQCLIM

[6] = biological target: T4, farnesylated human PEX19 C-terminal domain (residues 161-299) (human, UniProt P40855 161-299, farnesyl group on Cys296 (CaaX box)); assay: MST; fluorescein-PEX11B peptide (200 nM stock) constant, unlabelled PEX19 CTD serially diluted from 612 uM to 18 nM; 20 mM potassium phosphate pH 6.5, 50 mM NaCl, 20% methanol, 0.1% Tween; three measurements; settings: both partners purified
T4 construct: Peroxisomal biogenesis factor 19 (PEX19), human, C-terminal domain, residues 161-299, farnesylated at Cys296; Virtually complete farnesylation by SDS-PAGE and NMR; Isotope-labelled for NMR; also called farnesylated PEX19 CTD; source: E. coli BL21 (DE3), purified; farnesylated in vitro with S. cerevisiae farnesyl transferase, then Ni-NTA and Superdex 75
T4 sequence (looked up): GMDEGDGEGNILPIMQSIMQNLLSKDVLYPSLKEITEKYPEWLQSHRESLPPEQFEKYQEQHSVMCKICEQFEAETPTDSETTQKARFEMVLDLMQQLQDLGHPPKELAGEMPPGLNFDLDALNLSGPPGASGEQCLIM

[7] = biological target: T5, non-farnesylated human PEX19 C-terminal domain (residues 161-299) (human, UniProt P40855 161-299); assay: as above; settings: both partners purified
T5 construct: Peroxisomal biogenesis factor 19 (PEX19), human, C-terminal domain, residues 161-299 with the native C-terminus and CaaX box; 15N- (or 13C/2H-) labelled for NMR; Expressed from pETM11; also called PEX19 CTD; non-farnesylated PEX19 CTD; source: E. coli BL21 (DE3), purified (Ni-NTA, TEV cleavage, size-exclusion chromatography)
T5 sequence (looked up): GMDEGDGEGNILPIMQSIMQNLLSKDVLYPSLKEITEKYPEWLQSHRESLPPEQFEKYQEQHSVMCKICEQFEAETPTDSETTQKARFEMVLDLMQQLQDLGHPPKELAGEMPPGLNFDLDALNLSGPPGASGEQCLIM

[8] = test system: peroxisome biogenesis in cells; settings: ref Sacksteder et al, Gould J Cell Biol 2000; cited from earlier work
Text: page 14: remnants (and this is also what can be seen in these figures). To improve clarity and avoid confusion, the authors should correct these mistakes. […] The sentence on page 9 now reads “Cells that are not complemented by functional PEX19 show a cytosolic mislocalization of the peroxisomal marker protein GFP-PTS1 and a diffuse background immunolabelling of the peroxisomal membrane protein PEX14 that is different from the peroxisomal pattern and known to be due to mislocalization to mitochondria (Fig. 5c, ΔPEX19).” Accordingly, the legend of Figure 5 ...

[9] = test system: PEX19-deficient human fibroblasts (ΔPEX19 T); assay: Functional complementation of PEX19-deficient fibroblasts (peroxisomal protein import); assay type: cell-based; settings: full-length PEX19 variants; 72 h after transfection; at least 100 cells in three independent transfections; series of Fig. 3c
Text: A bicistronic expression plasmid coding for eGFP-PTS1 and non-tagged PEX14 (pMF1220)[43] was kindly provided by Marc Fransen (Leuven, Belgium). pIRES2-HsPEX19-eGFP-PTS1 was constructed by replacing the open reading frame of PEX14 (BglII/SalI) with a DNA-cassette encoding the full-length open reading frame of human PEX19 as derived from BamHI/SalI digestion of pAH05 (ref. [44]). Single point mutations were introduced into the PEX19 sequence by Quickchange XL Site-directed Mutagenesis kit (Stratagene) using primer pairs (Supplementary Table 1). The bicistronic expression vectors coding for PEX19 variants and eGFP-PTS1 were transfected into the human cell-line ΔPEX19 T which was derived from PEX19-deficient Zellweger patient fibroblasts. ΔPEX19 T cells, characterized by a defect in peroxisome biogenesis were routinely authenticated by functional complementation assays as described below and checked for mycoplasma contamination using Venor GeM Advance Mycoplasm Detection Kit (Minerva Biolabs). The efficiency of transfection according to the Amaxa Cell Line Nucleofector Kit R protocol (Lonza Cologne AG) was always around 90%. After 72 h of transfection, cells were subjected to fluorescence and immunofluorescence microscopy using polyclonal antiserum against human PEX14 (ref. [45]) (1:400 diluted) or monoclonal antibodies against human PEX19 (BD Biosciences, MA5-17266 Thermo Scientific; 1:400 diluted). Statistical analysis was carried out from three independent transfections of each pIRES-PEX19-eGFP-PTS1 expression plasmid. Based on the appearance of eGFP-PTS1 fluorescence pattern, about 100 cells of each experiment were visually categorized into three classes, (i) full complementation of peroxisomal import as visualized by punctuate staining pattern, (ii) partial complementation as indicated by diffuse cytosolic staining with few dots, (iii) no complementation resulting in only cytosolic staining. All micrographs were recorded on a Zeiss Axioplan 2 microscope with a Zeiss Plan-Apochromat × 63/1.4 oil objective and an Axiocam MR digital camera, and were processed with AxioVision 4.6 software (Zeiss, Jena, Germany). The steady-state level of PEX19 expression was assessed by immunoblot analysis, using monoclonal mouse antibodies against HsPEX19 (BD Biosciences, MA5-17266; 1:1,000 diluted) (Supplementary Fig. 9).

In the case of “C-terminally extended: C-terminally extended version of the ALDP peptide, which harbors an additional tryptophan (residue 68 to 82) (NRVFLQRLLWLLRLL; UniProt P33897 68-82, looked up, fragment)”, the “helical conformation of free peptide” value [1] is reported as “largely helical conforma”.

With `CSCC[C@H](NC(=O)CNC(=O)[C@H](C)NC(=O)[C@H](CCCCN)NC(=O)[C@H](C)NC(=O)[C@H](C)NC(=S)Nc1ccc2c(c1)C(=O)OC21c2ccc(O)cc2Oc2cc(O)ccc21)C(=O)N[C@@H](CC(N)=O)C(=O)N[C@@H](CCCNC(=N)N)C(=O)N[C@H](C(=O)N[C@@H](Cc1ccccc1)C(=O)N[C@@H](CC(C)C)C(=O)N[C@@H](CCC(N)=O)C(=O)N[C@@H](CCCNC(=N)N)C(=O)N[C@@H](CC(C)C)C(=O)N[C@@H](CC(C)C)C(=O)O)C(C)C` [fluorescein-labeled ALDP peptide] ({FITC}-AAKAGMNRVFLQRLL-OH; C-terminus assumed) the “binding to PEX19 CTD M179R” value (PEX19 CTD M179R) was “impaired binding”, the “binding to PEX19 CTD I195K” value (PEX19 CTD I195K) was “impaired binding” and the “binding to PEX19 CTD M255R” value (PEX19 CTD M255R) was “impaired binding”. The “increase in affinity upon farnesylation of wild type PEX19 CTD” value [2] was “seven”.

“farnesylated human PEX19 C-terminal domain (residues 161-299) (from UniProt P40855 161-299) (domain or fragment)” showed a fold increase in affinity over non-farnesylated PEX19 CTD [3] of 7 fold.

B1: FITC-labelled ALDP peptide (62-AAKAGMNRVFLQRLL-76) (peptide)
peptide: {FITC}-AAKAGMNRVFLQRLL
In the case of B1, the Kd [4] is reported as 36 µM and the Kd [5] is reported as 262 µM.

B2: N-terminally fluorescein-labelled PEX11B peptide (residues 186-200 of human PEX11B) (peptide)
peptide: fluorescein-LALKLRLQVLLLARV
notes: PEX11B, human, residues 186-200; also called PEX11-derived peptide; source: bought: Peptide Specialty Laboratories GmbH, Heidelberg
Work on B2 yielded a Kd [6] of 6.1 ± 0.4 µM and a Kd [7] of 29.8 ± 1.6 µM.

B3: wild type PEX19: full-length wild type human PEX19 expressed in fibroblasts (protein, UniProt P40855 1-299, looked up)
chain: MAAAEEGCSVGAEADRELEELLESALDDFDKAKPSPAPPSTTTAPDASGPQKRSPGDTAKDALFASQEKFFQELFDSELASQATAEFEKAMKELAEEEPHLVEQFQKLSEAAGRVGSDMTSQQEFTSCLKETLSGLAKNATDLQNSSMSEEELTKAMEGLGMDEGDGEGNILPIMQSIMQNLLSKDVLYPSLKEITEKYPEWLQSHRESLPPEQFEKYQEQHSVMCKICEQFEAETPTDSETTQKARFEMVLDLMQQLQDLGHPPKELAGEMPPGLNFDLDALNLSGPPGASGEQCLIM
modifications: full-length
notes: full-length wild type human PEX19 expressed in fibroblasts
In the case of B3, the “cells with rescue of peroxisome biogenesis” value [8] is given as ~50% and the “cells showing restored peroxisomal protein transport (functional complementation)” value [9] is given as 60%.

B4: PEX19/C296A: human PEX19 with a mutation of the farnesylation site (Sacksteder et al) (protein, UniProt P40855 2-296, looked up, variant C296A)
Peroxisomal biogenesis factor …: AAAEEGCSVGAEADRELEELLESALDDFDKAKPSPAPPSTTTAPDASGPQKRSPGDTAKDALFASQEKFFQELFDSELASQATAEFEKAMKELAEEEPHLVEQFQKLSEAAGRVGSDMTSQQEFTSCLKETLSGLAKNATDLQNSSMSEEELTKAMEGLGMDEGDGEGNILPIMQSIMQNLLSKDVLYPSLKEITEKYPEWLQSHRESLPPEQFEKYQEQHSVMCKICEQFEAETPTDSETTQKARFEMVLDLMQQLQDLGHPPKELAGEMPPGLNFDLDALNLSGPPGASGEQA
In the case of B4, the “functional complementation, % of the activity of wild-type PEX19” value [8] is given as ~80%.
